Measured values taken from paper doi:10.1101/2025.09.04.674342 (2025).

Biological target: CBP KIX domain (residues 586–672) (mouse, UniProt P45481 586-672)
Experiment: NMR

Sequence of CBP KIX domain (residues 586–672) (P45481 586-672): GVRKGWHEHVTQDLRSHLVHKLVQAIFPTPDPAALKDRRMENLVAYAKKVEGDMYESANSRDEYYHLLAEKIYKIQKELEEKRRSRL

Binder: FSDLPWPL [BMAL1 TAD switch peptide (residues 619–626, FSDLPWPL)]
- Kd: > 500 µM
